Source: US20160030510

Tested on: T1, MKI-EGFP fusion protein
T1 sequence: FPLKRHDKVDDLSK

Substance	phosphorylation of acetyl-CoA carboxylase (ACC) by AMPK in rat hippocampal neurons, pACC (Ser79) antibody	phosphorylation of endogenous tau at the 12E8 sites in rat hippocampal neurons, Western blot	phosphorylation of transfected HA-tagged human tau at the 12E8 sites in rat hippocampal neurons, immunostaining
AMP-activated kinase (AMPK)	MKI-EGFP did not affect the phosphorylation of acetyl-CoA carboxylase (ACC) by AMP-activated kinase (AMPK)		
MARK4 (PAR-1/MARK kinases) acting on tau in rat hippocampal neurons		expression of an MKI-GFP fusion protein in rat hippocampal neurons effectively attenuated MARK4-mediated phosphorylation of both endogenous tau (FIG. 3A) and transfected human tau at the 12E8 sites (FIG. 3B)	expression of an MKI-GFP fusion protein in rat hippocampal neurons effectively attenuated MARK4-mediated phosphorylation of both endogenous tau (FIG. 3A) and transfected human tau at the 12E8 sites (FIG. 3B)
